B1: WEE1 (parent)
chain: FLGSSFSPVRCGGPGDASPRGCGA

Variants of: B1
Assay: protein stability index of a GFP-peptide fusion (GPS, HEK-293T) (PSI 1-6); higher = more stable
Conditions: c terminus: a fixed tail appended
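Note: lentivirally expressed fusions sorted by FACS into six bins by GFP to DsRed ratio, PSI derived from sequencing read proportions per bin multiplied by bin number.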

| Variant | protein stability index |
| --- | --- |
| FLGSSFSPVRCGGAGDASPRGCGA [P14A] | 1.45 |
| FLGSSFSPVRCGGNGDASPRGCGA [P14N] | 1.85 |
| FLGSSFSPVRCGGKGDASPRGCGA [P14K] | 2.81 |
| FLGSSFSPVRCGGLGDASPRGCGA [P14L] | 1.59 |
| FLGSSFSPVRCGGWGDASPRGCGA [P14W] | 1.94 |
| FLGSSFSPVRCGGMGDASPRGCGA [P14M] | 1.17 |
| FLGSSFSPVRCGGCGDASPRGCGA [P14C] | 2.18 |
| FLGSSFSPVRCGGQGDASPRGCGA [P14Q] | 2.42 |
| FLGSSFSPVRCGGDGDASPRGCGA [P14D] | 1.9 |
| FLGSSFSPVRCGGEGDASPRGCGA [P14E] | 2.22 |
| FLGSSFSPVRCGGFGDASPRGCGA [P14F] | 3.56 |
| FLGSSFSPVRCGGTGDASPRGCGA [P14T] | 1.15 |
| FLGSSFSPVRCGGIGDASPRGCGA [P14I] | 2.29 |
| FLGSSFSPVRCGGRGDASPRGCGA [P14R] | 2.35 |
| FLGSSFSPVRCGGGGDASPRGCGA [P14G] | 2.04 |
| FLGSSFSPVRCGGSGDASPRGCGA [P14S] | 2.24 |
| FLGSSFSPVRCGGVGDASPRGCGA [P14V] | 1.35 |
| FLGSSFSPVRCGGYGDASPRGCGA [P14Y] | 2.42 |
| FLGSSFSPVRCGGHGDASPRGCGA [P14H] | 1.86 |
| FLGSSFSPVRCGIPGDASPRGCGA [G13I] | 2.43 |
| FLGSSFSPVRCGHPGDASPRGCGA [G13H] | 1.87 |
| FLGSSFSPVRCGEPGDASPRGCGA [G13E] | 1.52 |
| FLGSSFSPVRCGSPGDASPRGCGA [G13S] | 2.29 |
| FLGSSFSPVRCGQPGDASPRGCGA [G13Q] | 2.98 |

| Variant | protein stability index |
| --- | --- |
| FLGSSFSPVRCGMPGDASPRGCGA [G13M] | 1.58 |
| FLGSSFSPVRCGRPGDASPRGCGA [G13R] | 1.87 |
| FLGSSFSPVRCGDPGDASPRGCGA [G13D] | 1.57 |
| FLGSSFSPVRCGFPGDASPRGCGA [G13F] | 1.51 |
| FLGSSFSPVRCGAPGDASPRGCGA [G13A] | 1.94 |
| FLGSSFSPVRCGWPGDASPRGCGA [G13W] | 1.56 |
| FLGSSFSPVRCGNPGDASPRGCGA [G13N] | 2.38 |
| FLGSSFSPVRCGYPGDASPRGCGA [G13Y] | 1.63 |
| FLGSSFSPVRCGVPGDASPRGCGA [G13V] | 2.05 |
| FLGSSFSPVRCGTPGDASPRGCGA [G13T] | 1.55 |
| FLGSSFSPVRCGCPGDASPRGCGA [G13C] | 2.58 |
| FLGSSFSPVRCGPPGDASPRGCGA [G13P] | 2.12 |
| FLGSSFSPVRCGKPGDASPRGCGA [G13K] | 2.29 |
| FLGSSFSPVRCGLPGDASPRGCGA [G13L] | 2.58 |
| FLGSSFSPVRCGGPGYASPRGCGA [D16Y] | 1.23 |
| FLGSSFSPVRCGGPGCASPRGCGA [D16C] | 2.57 |
| FLGSSFSPVRCGGPGVASPRGCGA [D16V] | 1.91 |
| FLGSSFSPVRCGGPGQASPRGCGA [D16Q] | 1.86 |
| FLGSSFSPVRCGGPGGASPRGCGA [D16G] | 1.99 |
| FLGSSFSPVRCGGPGEASPRGCGA [D16E] | 1.93 |
| FLGSSFSPVRCGGPGWASPRGCGA [D16W] | 1.74 |
| FLGSSFSPVRCGGPGRASPRGCGA [D16R] | 2.06 |
| FLGSSFSPVRCGGPGHASPRGCGA [D16H] | 2.27 |
| FLGSSFSPVRCGGPGPASPRGCGA [D16P] | 1.73 |

| Variant | protein stability index |
| --- | --- |
| FLGSSFSPVRCGGPGKASPRGCGA [D16K] | 1.81 |
| FLGSSFSPVRCGGPGMASPRGCGA [D16M] | 2.45 |
| FLGSSFSPVRCGGPGNASPRGCGA [D16N] | 1.39 |
| FLGSSFSPVRCGGPGSASPRGCGA [D16S] | 2.09 |
| FLGSSFSPVRCGGPGTASPRGCGA [D16T] | 1.57 |
| FLGSSFSPVRCGGPGLASPRGCGA [D16L] | 1.88 |
| FLGSSFSPVRCGGPGAASPRGCGA [D16A] | 1.26 |
| FLGSSFSPVRCGGPGFASPRGCGA [D16F] | 2.35 |
| FLGSSFSPVRCGGPGIASPRGCGA [D16I] | 1.61 |
| FLGSSFSPVRCGGPGDADPRGCGA [S18D] | 2.16 |
| FLGSSFSPVRCGGPGDAEPRGCGA [S18E] | 2.15 |
| FLGSSFSPVRCGGPGDACPRGCGA [S18C] | 1.86 |
| FLGSSFSPVRCGGPGDAAPRGCGA [S18A] | 1.71 |
| FLGSSFSPVRCGGPGDTSPRGCGA [A17T] | 1.4 |
| FLGSSFSPVRCGGPGDMSPRGCGA [A17M] | 1.56 |
| FLGSSFSPVRCGGPGDESPRGCGA [A17E] | 1.95 |
| FLGSSFSPVRCGGPGDHSPRGCGA [A17H] | 1.8 |
| FLGSSFSPVRCGGPGDDSPRGCGA [A17D] | 2.34 |
| FLGSSFSPVRCGGPGDWSPRGCGA [A17W] | 2.29 |
| FLGSSFSPVRCGGPGDLSPRGCGA [A17L] | 1.78 |
| FLGSSFSPVRCGGPGDGSPRGCGA [A17G] | 2.07 |
| FLGSSFSPVRCGGPGDYSPRGCGA [A17Y] | 1.95 |
| FLGSSFSPVRCGGPGDPSPRGCGA [A17P] | 2.31 |
| FLGSSFSPVRCGGPGDCSPRGCGA [A17C] | 2.06 |

| Variant | protein stability index |
| --- | --- |
| FLGSSFSPVRCGGPGDQSPRGCGA [A17Q] | 1.53 |
| FLGSSFSPVRCGGPGDNSPRGCGA [A17N] | 1.99 |
| FLGSSFSPVRCGGPGDKSPRGCGA [A17K] | 1.53 |
| FLGSSFSPVRCGGPGDISPRGCGA [A17I] | 1.87 |
| FLGSSFSPVRCGGPGDRSPRGCGA [A17R] | 2.21 |
| FLGSSFSPVRCGGPGDSSPRGCGA [A17S] | 1.39 |
| FLGSSFSPVRCGGPGDVSPRGCGA [A17V] | 1.47 |
| FLGSSFSPVRCGGPGDFSPRGCGA [A17F] | 1.54 |
| FLGSSFSPVRCGGPEDASPRGCGA [G15E] | 1.59 |
| FLGSSFSPVRCGGPLDASPRGCGA [G15L] | 2.68 |
| FLGSSFSPVRCGGPKDASPRGCGA [G15K] | 1.93 |
| FLGSSFSPVRCGGPWDASPRGCGA [G15W] | 3.02 |
| FLGSSFSPVRCGGPHDASPRGCGA [G15H] | 1.76 |
| FLGSSFSPVRCGGPCDASPRGCGA [G15C] | 1.25 |
| FLGSSFSPVRCGGPDDASPRGCGA [G15D] | 2.06 |
| FLGSSFSPVRCGGPMDASPRGCGA [G15M] | 1.88 |
| FLGSSFSPVRCGGPVDASPRGCGA [G15V] | 1.65 |
| FLGSSFSPVRCGGPSDASPRGCGA [G15S] | 2.02 |
| FLGSSFSPVRCGGPNDASPRGCGA [G15N] | 1.77 |
| FLGSSFSPVRCGGPIDASPRGCGA [G15I] | 1.82 |
| FLGSSFSPVRCGGPRDASPRGCGA [G15R] | 1.56 |
| FLGSSFSPVRCGGPADASPRGCGA [G15A] | 2.45 |

From the supplement of paper PMC10567573
